{"source": "paper PMC2588520", "key": {"[1]": {"target": "T1, UP1 (proteolytic product of hnRNP A1) (UniProt P09651 1-196)", "T1 sequence (P09651 1-196)": "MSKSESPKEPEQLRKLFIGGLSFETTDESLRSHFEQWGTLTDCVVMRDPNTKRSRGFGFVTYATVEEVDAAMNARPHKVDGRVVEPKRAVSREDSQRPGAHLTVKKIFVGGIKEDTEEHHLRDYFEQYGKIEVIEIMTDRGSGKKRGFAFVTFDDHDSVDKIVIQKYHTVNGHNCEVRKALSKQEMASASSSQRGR", "experiment": "EMSA"}, "[2]": {"target": "T1, UP1 (proteolytic product of hnRNP A1)", "experiment": "EMSA", "remark": "listed apart in the source"}}, "note": "Where two headings read alike, the source gives them in different places."}
{"binder": "UGAGAAGGGCGUAGG (ssRNA)", "note": "[15-mer telomerase RNA]", "values": [{"measurement": "binding result", "setting": "[1]", "value": "binds"}, {"measurement": "binding result", "setting": "[2]", "value": "binds"}]}
